B1: Hairpin Ribozyme (parent)
chain: GUCCUCUUUCACGUGCGCGUGAAAGAGAGAAGUGAACCAGAGAAACACACGUUGUGGUAUAUUACCUGGUA

The data set covers variants of B1. Kind of data set: self-cleavage, relative activity (ratio to wild type); higher = more cleavage; co-transcriptional.
With A49U G57C, the self-cleavage worked out at 0.0724.

For the variant A49G G68C, the self-cleavage came out at 0.307.

On to G1A G34A, for which the self-cleavage turned out to be 0.18.

As to A28C A59C, the self-cleavage was determined as 0.

In the case of C38U A71U, the self-cleavage turned out to be 0.401.

As to G32A A71C, the self-cleavage came to 0.15.

Consider U33A C37U, for which the self-cleavage was found to be 0.109.

In the case of U20C U62C, the self-cleavage was 0.462.

As for C16A G21C, the self-cleavage came out at 0.605.

In the case of U33A U53G, the self-cleavage was 0.0866.

Regarding G42C G56A, the self-cleavage is 0.155.

A49U U63G: the self-cleavage worked out at 0.111.

On to U20C A23U, for which the self-cleavage was determined as 0.667.

With A39U U63C, the self-cleavage is 0.144.

With G17A A45U, the self-cleavage was 0.13.

Take U2C A31G: the self-cleavage amounted to 0.

Turning to A44U A64G, the self-cleavage was found to be 0.202.

Consider A35C A49G, for which the self-cleavage worked out at 0.341.

In the case of G32A U62C, the self-cleavage came to 0.128.

Consider G25U U53A, for which the self-cleavage worked out at 0.647.

With C4U G56U, the self-cleavage worked out at 0.126.

For the variant G27U U70G, the self-cleavage was 0.228.

Take C4G G13U: the self-cleavage is 0.21.

Take G40U G57C: the self-cleavage is 0.124.

Turning to A39G A47U, the self-cleavage was determined as 0.134.

In the case of A26G C50A, the self-cleavage was 0.262.

On to A31C A41C, for which the self-cleavage was found to be 0.0332.

Consider G27U A31C, for which the self-cleavage is 0.205.

For C12U A64G, the self-cleavage is 0.564.

As for G25C C46G, the self-cleavage turned out to be 0.115.

As for U58C U70A, the self-cleavage was determined as 0.897.

For the variant A24C G25U, the self-cleavage amounted to 0.388.

In the case of U33C U55C, the self-cleavage was 0.173.

As to A49C G57A, the self-cleavage worked out at 0.193.

For the variant C18U A59G, the self-cleavage turned out to be 0.148.

As to G32C A41U, the self-cleavage came to 0.101.

For G29A U63A, the self-cleavage turned out to be 0.124.

C6A C10U: the self-cleavage is 0.371.

With A61C G69U, the self-cleavage was 0.145.

For the variant A22U A61G, the self-cleavage came to 0.155.

In the case of A47G U63C, the self-cleavage stood at 0.248.

In the case of C10U U14A, the self-cleavage was 0.811.

Take A22U G25U: the self-cleavage is 0.253.

On to A26U G68U, for which the self-cleavage came out at 0.207.

On to U2G U53G, for which the self-cleavage came to 0.267.

As for C6A G21A, the self-cleavage came to 0.6.

With A47G U52G, the self-cleavage amounted to 0.259.

On to C10G A36C, for which the self-cleavage came out at 0.498.

A11U G56A: the self-cleavage was found to be 0.176.

On to A23U C48G, for which the self-cleavage turned out to be 0.226.

With G17C U20G, the self-cleavage was determined as 0.904.

For G13U A28U, the self-cleavage turned out to be 0.546.

As for G17A G27A, the self-cleavage amounted to 0.547.

Take C6A U53C: the self-cleavage was determined as 0.517.

For G13A U67A, the self-cleavage was 0.27.

Consider C16A G57U, for which the self-cleavage amounted to 0.242.

As to G15A U52C, the self-cleavage came to 0.916.

Take G17A A41G: the self-cleavage was determined as 0.833.

Take G13U G15A: the self-cleavage worked out at 0.491.

With G27U A35C, the self-cleavage turned out to be 0.44.

As to U70G, the self-cleavage is 0.844.

For the variant A31C A36U, the self-cleavage was 0.0851.

Consider U8C G19A, for which the self-cleavage worked out at 0.302.

C6A A44G: the self-cleavage is 0.113.

For the variant A26U U63C, the self-cleavage was found to be 0.199.

On to G1C G34A, for which the self-cleavage is 0.162.

As to U9G U20C, the self-cleavage was found to be 0.682.

Take C18U C66A: the self-cleavage was found to be 0.25.

On to A44C G51A, for which the self-cleavage worked out at 0.0817.

Take A44C C48U: the self-cleavage stood at 0.0439.

On to U8A G56U, for which the self-cleavage was found to be 0.134.

C46U C66A: the self-cleavage turned out to be 0.113.

Turning to A47G A61C, the self-cleavage was 0.132.

With C38A C65G, the self-cleavage stood at 0.104.

In the case of C50G U70C, the self-cleavage stood at 0.498.

With C3U C16U, the self-cleavage stood at 0.628.

With G13U C16U, the self-cleavage worked out at 0.818.

For the variant A39U G56A, the self-cleavage was 0.114.

Turning to G34U A45U, the self-cleavage was determined as 0.351.

Turning to A36U A45G, the self-cleavage turned out to be 0.106.

C16U U53A: the self-cleavage was found to be 1.23.

For the variant U7A G21A, the self-cleavage is 0.706.

Take U55A G56U: the self-cleavage is 0.148.

In the case of U7C A31G, the self-cleavage stood at 0.525.

Consider A36C G69A, for which the self-cleavage is 0.24.

With G56C G68U, the self-cleavage came to 0.173.

As to U52G U58A, the self-cleavage came out at 0.452.

As to G34A A59U, the self-cleavage was 0.203.

For C12A G54A, the self-cleavage was 0.485.

In the case of G68C A71G, the self-cleavage was found to be 0.233.

For A47U C65U, the self-cleavage was 0.0249.

On to G25C C66A, for which the self-cleavage was 0.133.

As for G27C A43G, the self-cleavage was 0.107.

For C4U A24U, the self-cleavage is 0.295.

Consider G32A A45C, for which the self-cleavage was found to be 0.277.

In the case of A47G G68A, the self-cleavage is 0.181.

G54C C66U: the self-cleavage is 0.254.

Turning to U5A A23U, the self-cleavage amounted to 0.323.

Take A28G C46U: the self-cleavage came out at 0.137.

Consider U7A A36G, for which the self-cleavage was determined as 1.03.

Consider U8A G13C, for which the self-cleavage was 0.687.

As for A35C A43G, the self-cleavage is 0.155.

Regarding C18G A47C, the self-cleavage is 0.242.

On to G1U G29C, for which the self-cleavage is 0.109.

On to U53G A59G, for which the self-cleavage stood at 0.114.

As for G19A U55C, the self-cleavage came to 0.123.

Regarding G32U C38G, the self-cleavage came out at 0.125.

Consider C6A C18A, for which the self-cleavage was determined as 0.649.

For the variant G1U C48U, the self-cleavage is 0.155.

On to U33A A47G, for which the self-cleavage is 0.0897.

Take C38U A41G: the self-cleavage was found to be 0.648.

In the case of C12G A35C, the self-cleavage turned out to be 0.74.

G51A G69C: the self-cleavage stood at 0.467.

C37G A43C: the self-cleavage was found to be 0.108.

A36C U62C: the self-cleavage came to 0.192.

In the case of A11G A49U, the self-cleavage worked out at 0.208.

In the case of C12G A31G, the self-cleavage was 0.455.

Consider U8A G42A, for which the self-cleavage is 0.129.

Take G29A A41C: the self-cleavage was determined as 0.053.

Regarding C10A A64C, the self-cleavage worked out at 0.185.

Take C37G G57U: the self-cleavage was determined as 0.141.

Regarding G57U A71U, the self-cleavage was determined as 0.223.

Turning to U7A A28U, the self-cleavage was 0.58.

In the case of A28C U33G, the self-cleavage was 0.

As to G21U G51U, the self-cleavage is 0.992.

Regarding A30C C48G, the self-cleavage worked out at 0.126.

As for C10U G56A, the self-cleavage is 0.181.

As for C10U G56C, the self-cleavage came to 0.25.

On to U7C C66A, for which the self-cleavage turned out to be 0.217.

As to U9G G51C, the self-cleavage was 0.614.

As for U58A A61G, the self-cleavage was 0.27.

As to A23U C37U, the self-cleavage came out at 0.594.

For A22G G68U, the self-cleavage amounted to 0.362.

On to U52A G68A, for which the self-cleavage was 0.337.

Turning to U52A G68U, the self-cleavage amounted to 0.309.

Consider A31G U63G, for which the self-cleavage was determined as 0.135.

Take U33G A59G: the self-cleavage worked out at 0.204.

For the variant G13C G68C, the self-cleavage amounted to 0.151.

Turning to U55A C65G, the self-cleavage was 0.19.

Consider C46U U52A, for which the self-cleavage was 0.179.

For A36U U52A, the self-cleavage worked out at 0.303.

For the variant A24C G69U, the self-cleavage came out at 0.188.

Consider C4G C38G, for which the self-cleavage was found to be 0.104.

With A23U A28G, the self-cleavage is 0.956.

U14G A30G: the self-cleavage worked out at 0.0762.

With C16U G42U, the self-cleavage is 0.34.

Take G32U U58G: the self-cleavage is 0.137.

In the case of U7G U20G, the self-cleavage stood at 0.453.

Consider A41U U53C, for which the self-cleavage was found to be 1.25.

Consider A39U A47G, for which the self-cleavage amounted to 0.158.

Turning to A43G U63C, the self-cleavage was determined as 0.156.

For A44G C46A, the self-cleavage came to 0.184.

Turning to A44C A71U, the self-cleavage stood at 0.152.

For the variant A39G U62G, the self-cleavage turned out to be 0.074.

Take G25C A35C: the self-cleavage came to 0.474.

For the variant C4A A59U, the self-cleavage stood at 0.0921.

For G57U U62G, the self-cleavage stood at 0.176.

Consider C6A A45U, for which the self-cleavage stood at 0.179.

As for C37G U63C, the self-cleavage came to 0.154.

As to U20A G51C, the self-cleavage came out at 0.846.

Turning to G57A U63C, the self-cleavage was 0.151.

Consider G13C G34A, for which the self-cleavage came to 0.915.

Consider A28U G34C, for which the self-cleavage amounted to 1.23.

For G1U C37G, the self-cleavage is 0.0694.

Regarding A47U U53A, the self-cleavage stood at 0.133.

Consider U55G U63G, for which the self-cleavage amounted to 0.

Consider C46A U62A, for which the self-cleavage stood at 0.132.

The values above are taken from the RNAGym collection of RNA variant scans (doi:10.7554/elife.80360).
